In PMC5282554, “The intervening domain from MeCP2 enhances the DNA affinity of the methyl binding domain and provides an independent DNA interaction site”:

B1: BDNF promoter IV 45 bp unmethylated (dsDNA)
DNA 1: GCCATGCCCTGGAACGGAACTCTCCTAATAAAAGATGTATCATTT
DNA 2: AAATGATACATCTTTTATTAGGAGAGTTCCGTTCCAGGGCATGGC
B2: BDNF promoter IV 45 bp mCpG (dsDNA)
DNA 1: B1 DNA 1
DNA 2: B1 DNA 2
modifications: 5-methylcytosine at C15 of strand 1 and C30 of strand 2 (symmetric mCpG)

Key:
Details in all cases: protein: recombinant; tags: His-tag removed (PreScission); blunt
[1] = molecular target: T1, MeCP2 NTD-MBD-ID (UniProt P51608 1-206); experiment: ITC; pH 7; MBD site of two-site model; ITC: Tris 50 mM, pH 7, 20 °C (also 15 and 17.5 °C; Pipes or phosphate 50 mM, pH 7), no added NaCl unless stated; protein 3-5 uM in cell, dsDNA 50 uM titrant
[2] = molecular target: MeCP2 NTD-MBD (UniProt P51608 1-162); experiment: ITC; pH 7; ITC: Tris 50 mM, pH 7, 20 °C (also 15 and 17.5 °C; Pipes or phosphate 50 mM, pH 7), no added NaCl unless stated; protein 3-5 uM in cell, dsDNA 50 uM titrant
[3] = molecular target: MeCP2 MBD (UniProt P51608 78-162); experiment: as above
[4] = molecular target: T1, MeCP2 NTD-MBD-ID; experiment: ITC; pH 7; ID site of two-site model; ITC: Tris 50 mM, pH 7, 20 °C (also 15 and 17.5 °C; Pipes or phosphate 50 mM, pH 7), no added NaCl unless stated; protein 3-5 uM in cell, dsDNA 50 uM titrant

Binder | Kd [1] [nM] | Kd [2] [nM] | Kd [3] [nM] | Kd [4] [nM]
B1 | 1.9 | 210 | 450 | 250
B2 | 0.56 | 90 | 240 | 62
